For experiment [1], the target named is rat lutropin/chorionic gonadotropin receptor (rLH/CGR) (rat) (UniProt P16235).
Experiment [2] concerns the target rat follicle-stimulating hormone receptor (rFSHR) (rat) (UniProt P20395).
UniProt P20395, sequence (P20395 18-692): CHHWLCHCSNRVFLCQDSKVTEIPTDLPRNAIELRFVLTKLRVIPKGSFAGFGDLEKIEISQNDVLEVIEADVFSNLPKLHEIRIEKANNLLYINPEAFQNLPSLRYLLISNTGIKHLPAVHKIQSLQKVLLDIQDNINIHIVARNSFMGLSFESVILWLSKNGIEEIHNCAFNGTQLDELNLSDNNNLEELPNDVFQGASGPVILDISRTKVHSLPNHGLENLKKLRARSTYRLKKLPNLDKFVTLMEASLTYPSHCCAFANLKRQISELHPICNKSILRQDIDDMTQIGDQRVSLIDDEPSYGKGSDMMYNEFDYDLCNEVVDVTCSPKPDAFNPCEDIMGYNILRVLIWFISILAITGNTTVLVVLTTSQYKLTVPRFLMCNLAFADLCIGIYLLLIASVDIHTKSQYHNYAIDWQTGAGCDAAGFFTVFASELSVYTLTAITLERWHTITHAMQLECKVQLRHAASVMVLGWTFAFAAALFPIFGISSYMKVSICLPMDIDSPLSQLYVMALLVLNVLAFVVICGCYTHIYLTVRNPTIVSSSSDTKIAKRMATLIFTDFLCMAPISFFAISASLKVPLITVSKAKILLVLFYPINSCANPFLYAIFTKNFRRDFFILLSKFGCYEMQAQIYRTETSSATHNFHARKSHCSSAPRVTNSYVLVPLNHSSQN

UniProt P16235, sequence (P16235 27-700): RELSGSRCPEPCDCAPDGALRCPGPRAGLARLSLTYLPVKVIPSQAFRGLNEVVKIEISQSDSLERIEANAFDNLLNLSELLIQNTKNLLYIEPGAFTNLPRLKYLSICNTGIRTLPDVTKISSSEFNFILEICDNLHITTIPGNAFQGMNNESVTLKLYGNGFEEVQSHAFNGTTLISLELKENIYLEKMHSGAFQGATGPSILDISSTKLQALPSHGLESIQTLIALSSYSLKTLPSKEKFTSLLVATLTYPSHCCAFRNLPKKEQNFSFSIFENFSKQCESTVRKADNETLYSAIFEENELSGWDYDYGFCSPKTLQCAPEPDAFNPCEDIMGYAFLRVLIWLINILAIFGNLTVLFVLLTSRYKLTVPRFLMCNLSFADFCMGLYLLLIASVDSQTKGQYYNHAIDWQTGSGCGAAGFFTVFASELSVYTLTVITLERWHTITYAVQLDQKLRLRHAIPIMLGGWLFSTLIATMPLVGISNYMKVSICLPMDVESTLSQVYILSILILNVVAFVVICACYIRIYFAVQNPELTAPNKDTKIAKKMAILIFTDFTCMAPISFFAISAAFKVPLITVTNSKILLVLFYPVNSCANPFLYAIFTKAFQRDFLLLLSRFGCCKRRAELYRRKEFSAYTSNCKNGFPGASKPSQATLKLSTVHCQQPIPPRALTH

Regarding “rec-eCGβ-D/α (single-chain eCG, CTP region of the β-subunit deleted) (ligand)”, in experiment [1], the EC50 of cAMP production (HTRF cAMP immunoassay) in CHO-K1 cells transiently expressing rLH/CGR, 30 min at room temperature, mock-transfected cells subtracted turned out to be 0.0245 µg/mL. Further, the EC50 of cAMP production (HTRF cAMP immunoassay) in CHO-K1 cells transiently expressing rFSHR, 30 min at room temperature, mock-transfected cells subtracted in experiment [2] turned out to be 0.0631 µg/mL.

For the substance “rec-eCGβ-D/αΔ56 (single-chain eCG double mutant: CTP of the β-subunit deleted and Asn56 of the α-subunit replaced with Gln) (ligand)”, the EC50 of cAMP production (HTRF cAMP immunoassay) in CHO-K1 cells transiently expressing rLH/CGR, 30 min at room temperature, mock-transfected cells subtracted in experiment [1] came out at 0.334 µg/mL. For the same substance, the EC50 of cAMP production (HTRF cAMP immunoassay) in CHO-K1 cells transiently expressing rFSHR, 30 min at room temperature, mock-transfected cells subtracted in experiment [2] was determined as 0.0949 µg/mL.

“rec-eCGβ/αΔ56 (single-chain eCG, Asn56 of the α-subunit replaced with Gln) (from UniProt P08751 21-169) (ligand)” displayed an EC50 of cAMP production (HTRF cAMP immunoassay) in CHO-K1 cells transiently expressing rLH/CGR, 30 min at room temperature, mock-transfected cells subtracted in experiment [1] of 0.0176 µg/mL. In experiment [2], this substance returned an EC50 of cAMP production (HTRF cAMP immunoassay) in CHO-K1 cells transiently expressing rFSHR, 30 min at room temperature, mock-transfected cells subtracted of 0.112 µg/mL.

For the substance “recombinant single-chain equine chorionic gonadotropin, rec-eCGβ/α-wt (from UniProt P08751 21-169) (ligand)”, the EC50 of cAMP production (HTRF cAMP immunoassay) in CHO-K1 cells transiently expressing rLH/CGR, 30 min at room temperature, mock-transfected cells subtracted in experiment [1] stood at 0.0046 µg/mL. Moreover, the EC50 of cAMP production (HTRF cAMP immunoassay) in CHO-K1 cells transiently expressing rFSHR, 30 min at room temperature, mock-transfected cells subtracted in experiment [2] is 0.0271 µg/mL.

These data come from PMC8419929.
